Results on eight sequences are retold here after the DeepSol protein solubility set.

A short description of the data set: soluble on expression in E. coli; label from the status in PepcDB or PDB records.
In the case of “MTTVTVTTEIPPRDKMEDNSALYESTSAHIIEETEYVKKIRTTLQKIRTQMFKDEIRHDSTNHKLDAKHCGNLQQGSDSEMDPSCCSLDLLMKKIKGKDLQLLEMNKENEVLKIKLQASREAGAAALRNVAQRLFENYQTQSEEVRKKQEDSKQLLQVNKLEKEQKLKQHVENLNQVAEKLEEKHSQITELENLVQRMEKEKRTLLERKLSLENKLLQLKSSATYGKSCQDLQREISILQEQISHLQFVIHSQHQNLRSVIQEMEGLKNNLKEQDKRIENLREKVNILEAQNKELKTQVALSSETPRTKVSKAVSTSELKTEGVSPYLMLIRLRK”, the “soluble on expression in E. coli” value is listed as “not soluble”. “DPIGHLNKLPVAVVNSDTGVTKEGKTINAGEQITHSLVDQQQAKFIEVSADQARKGIADGTYYFAIEFPTDFSQAATSVKDPQPHQAKLNAVYNNANGFLATMLGNQVVGRVLAAVNENLGSQVANQLLVGFNTIGQGLGAAADGAGQLADGSHKAHDGADKLADGSTQLNNGLQQANDGAHKLYDGAGQLDQGIHTASNGADALADGLTKLNAATDTLGNGAGQVSAGVDKLVGVAQQASDAQAQLTVPLVNLSAQLRATGIPQAIDLANSADGIINSINAAGIGPQSDMMTQLSKLRNGASEIHRQLSDPTAQYRAGINSATEGAQKLSTGLHQLSDGSEKLVIGTKTLADGTTKLSAGSQQLTVGASQLSSGLVRLDEGASELSLKLGESKDKIPQFPDDTIADSARNVSTPVAENVARDSLS”: the “soluble on expression in E. coli” value is given as “not soluble”. For “MNAACPDCGLKFQCLCSAVPSFHAPFQLSLLTHDNEWQRETNTGRWLVKSMAECQAYTWSRVAANTELQARLTQPNARSFLVYPSEESVELTDALRSLREDEIAHFIVLDATWQEARKMERKSPWLADVPRVHLTTDHVSAYRLRRNQQPGNLCTLEVGLMLLRHFNAEASAEALEQFYHYSMNAFKADKSGHRWIERLEHHHHHH”, the “soluble on expression in E. coli” value is “not soluble”. Under “QVQLVQSGAEVKKPGSSVKVSCTSSEVTFSSFAISWVRQAPGQGLEWLGGISPMFGTPNYAQKFQGRVTITADQSTRTAYMDLRSLRSEDTAVYYCARSPSYICSGGTCVFDHWGQGTLVTVSSGGGGSGGGGSGGGGIQPGLTQPPSVSKGLRQTATLTCTGNSNNVGNQGAAWLQQHQGHPPKLLSYRNNDRPSGISERFSASRSGNTASLTITGLQPEDEADYYCSTWDSSLSAVVFGGGTKLTVLGQPKAAPSAAAEQKLISEEDLNGAAHHHHHH” stands “soluble”; under “MAHHHHHHMCGSCWAFAAIGNIEGQWFLAGNPLTRLSEQMLVSCDNTNSGCGGGSSLKAFKWIVDRNNGAVYTEESYPYHSCIGIKLPCTTSGHTVGATITGHVELPQDEAQIAAWLAVNGPVAVVVDASSWIFYTGGVLTNCVSKKLDHAVLLVGYNDSATAPYWIIKNSWTTQWGEDGYIRIAKGSNQCLVKEEASSAVVGGPGATPEPTTTTTTSAPGPSPSCFVQMSCTDAACIVGCENVTLPTGQCLLTTSGASAIVTCGAETLTEEVFLTSTHCSGPSVRSSVPLNKCNRLLRGSVEFFRGSSSSGRLADVDRQRRYQPYHSRHRRL”, “soluble”.

Consider “MSLSFLYFNDNSKIANAPLKNRFEKTQKESLIIKNNNEDKKAKSKPKFYLIIDDVGYDEFMLEQFIKLNLKITYAIIPFLPKSMSLYKKLKNANKTVIIHFPMQSKHRNSIEKFHINIKDKKEEIHKKIEKAFKKYPDAKIMNNHMGSLITSNKDLMKIILEKLKEIDRYFFDSVTIAGSVPEIIGKEIGVKVEKRDVFLDSKDTEESVTKELEKAKNIARKNGMVKVIGHIWSKNTLKVLKKEGPDLNQEFEFDNLLNLYEETIREGHHHHHH”, for which the “soluble on expression in E. coli” value is reported as “not soluble”. Regarding “MGSDKIHHHHHHMEPAELLKKIHQLPRLPKAVSELLEAVNNDQISIKDIAAKVSQDPLMSARVLRLANSSYFGANRKVASIDAAVVRLGMQTLRNLVIASAVVGAVPKAEGVDLGGFWGATFEVALYSQELAKHTHIPPEEAFTCGILHNIGDLFIATAAPDAAKAIDKAVMAGADKQETELKILDFDAATIGALLAQSWRFTDKLAAGIANQYQPKEAELYSDLAGLMYMAKALFSGWDEIEDDAITGWLSVQAMNAGLEMDMSDLAADLLKVKGSGLEMGQLLA”, the “soluble on expression in E. coli” value is “not soluble”. For the sequence “QIKDHLIIVGFGFSGKTISKAAKAAGIPYLIIEMNPEIVQHEKAKGEKIQYGDATFGAVLEHAGIKNARVLVTGIADSSSTGKIVEKAKELNPNICVIVKVHDLQEMKRLNSMGADEIIPEEYETSVEIFVRLLEKYLVPRENIEK”, the “soluble on expression in E. coli” value is listed as “not soluble”.
